From the supplement of paper PMC12764529
± gives the half width of the 95% confidence interval.

Columns and labels:
[1] = folding stability dG unfold (combined trypsin and chymotrypsin); higher = more stable
How it was run: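 Unfolding free energy was derived, per protease or combined, by relating Bayesian-fitted K50 values from sequencing counts to a sequence-predicted unfolded-state K50 and a shared folded-state K50. The underlying digests exposed cysteine-free mini-proteins under 80 residues, in a PA-tagged cDNA display construct, to trypsin and chymotrypsin at 11 threefold-diluted concentrations and to a no-protease condition. A filter kept only designs with AlphaFold2 dimer inter-PAE above 15.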

[2] = folding stability dG unfold from trypsin proteolysis; higher = more stable
Method: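 Folding stability of de novo designed mini-proteins (<80 aa, no Cys; designed by TrROS, TrMRF, ProteinMPNN and the joint model) was measured by cDNA display proteolysis with trypsin and chymotrypsin. Each protease was used at 11 concentrations in a threefold dilution series plus a no-protease condition. K50 was inferred by Bayesian fitting of sequencing counts, and dG unfold was derived against a sequence-predicted unfolded-state K50 (Tsuboyama et al. method). Sequences shown include variable-length N-terminal GS-type padding (SAGGSAGG...) inside a display construct carrying a PA tag. Rows were kept only if the AF2 dimer inter-PAE was >15, to exclude likely homo-oligomers.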

| Sequence | folding stability dG unfold [1] [kcal/mol] | folding stability dG unfold [2] [kcal/mol] |
| --- | --- | --- |
| SAGGSAGGSMTETVVLPYPLPPGVPFHIELPDGSKSVSADPETGTLTVLVKKGTEEAVKEALASAGGSAGGS [r12_476_JUSTAS] | -0.989 ± 0.27 | -0.508 ± 0.12 |
| SAGGSAGGSMTVKKIEIKPPPGGTDLATITTEKVDPSTGKPSLSTSTVTVPKNNPEAIEKFLSSAGGSAGGS [r12_691_JUSTAS] | < -1 | -0.257 ± 0.18 |
| SAGGSAGGSNIVSARPLGDLVLIEIEPGGKPLRAVVRPSELPPNPPIPPGLSYRVEPGSVSDYSAGGSAGGS [r12_1005_TrMRF] | < -1 | -1.09 ± 0.28 |
| SAGGSAGGSPPFTITFIDENGKGVKKINLPFDPKKPSVLPLSEEEIKALKEELGPEAKSITLSSAGGSAGGS [r12_514_JUSTAS] | < -1 | -0.658 ± 0.16 |
| SAGGSAGGSQKIEITKVEPERGPNGRPYHRVNIEIVIPDGKPRKFDFYFDDPEDLENMTIELPSAGGSAGGS [r20_130_TrROS] | -0.88 ± 0.19 | -0.861 ± 0.17 |
| SAGGSAGGSSMPLLTKETSESYDPVNNTKTTTERIEEPGSGKFVFTKTTTTYPDGTVTTTLVESAGGSAGGS [r12_115_JUSTAS] | -0.652 ± 0.35 | -0.336 ± 0.42 |
| SAGGSAGGSSMPPGWSVTSETVVESIIETPNGPIIKVTTSKTTVTPPNGPPSTYTTTSEDPLGSAGGSAGGS [r12_544_JUSTAS] | < -1 | -0.314 ± 0.13 |
| SAGGSAGGSSSVMTVTVEYPTPAPPVVRRETVEVPDPDGSLSEEELKEKYSPPDAVVTEVVRESAGGSAGGS [r12_611_JUSTAS] | < -1 | -1.07 ± 0.34 |
| SAGGSAGGSTIREILDALPPGREIDVERHPNNGHYEISIQNPNGPNPTFQIDDPVTKEIAEWISAGGSAGGS [r12_174_TrROS] | -0.0634 ± 0.11 | 0.65 ± 0.031 |
| SAGGSAGGSTTSTIKVTLENPSGSPLKLETATITTDPVAGTSTLTVTVPGTGETKFVGTNPNLSSAGGSAGG [r6_330_JUSTAS] | 0.107 ± 0.061 | 0.713 ± 0.052 |
| SAGGSAGGSVKVTTEPLPNGERLVTVTAYLKSKPYPVLMPYPASATPEQVKETALRIEKELEKSAGGSAGGS [r12_69_TrMRF] | < -1 | -0.999 ± 0.49 |
| SAGGSAGGSYPIFDKEKGKLDPGPPEKELDVVIKVKKDGKWYPIDLKLSKSDLIRFVKELEKDSAGGSAGGS [r20_148_TrMRF] | < -1 | -0.698 ± 0.24 |
| SAGGSAGGSYSKNGQPPPTREIEIIILVEDPEEAENKADELSEMLGMPIKVEIIPEEDAKKMISAGGSAGGS [r12_766_TrROS] | 0.27 ± 0.86 | 0.0437 ± 0.24 |
| SAGGSAGGTIIDRIKELFGPGMKINIQEHPSEPYYRIRIKNPGFGQKREIHVPPDSIEDILDQISAGGSAGG [r6_612_TrROS] | 0.202 ± 0.36 | 0.538 ± 0.33 |
| SAGGSAIRIEPDEDGYIKIEKPSPPGEPASELIEELKDFFPNWEVETHPHPNGRAEIIFRIPPDQFSAGGSA [r15_1047_TrROS] | -0.132 ± 0.15 | 0.244 ± 0.077 |
| SAGGSAKPVEVELPDGIEIYYPKDRMYIEINLPNGRPIKIPFEFDDPNDPERALDKARDLVKKLPWSAGGSA [r15_748_TrROS] | < -1 | -0.577 ± 0.41 |
| SAGGSAMDAEQIEEKIKEAMQDHGHEVEVEVQRDPNNTVVIQVESGPGMDKDRIQEALQEKFGVKISAGGSA [r15_807_TrROS] | < -1 | -0.793 ± 0.1 |
| SAGGSAMKVATLKVGGVDHTVEITPLPDGSYPVTTTAEEGGETTTTVVPKSEVKKLEDLPPEYRLLSAGGSA [r15_629_JUSTAS] | < -1 | -0.414 ± 0.49 |
| SAGGSAMKVKSIHWQRHGDRPMVRIKIQNPDGKKRERNIPMDDPEKFKKEAKELAKEGKIKEIEPYSAGGSA [r15_575_TrROS] | < -1 | -0.42 ± 0.81 |
| SAGGSAMPKPKVEILKVEKTEDGTVKVPVKVEVTFEDGSKETVPATVTFEVEEGKPLGPEALKEAISAGGSA [r15_836_TrMRF] | < -1 | -0.377 ± 0.11 |
| SAGGSAMTLEELKGMPIRSWWPGGQKIEMPIKKIDLNDPMFEIKFGGEPIKIPFNHPMRIEIQPPKSAGGSA [r15_355_TrROS] | -0.64 ± 0.27 | 0.0637 ± 0.052 |
| SAGGSANMREVEIPMTPNDLEEALEEVEDAPPGRNVSVNMTNPEEGKPYPIKIRVNENGKLTEIEFSAGGSA [r15_228_TrROS] | -0.179 ± 0.27 | 0.501 ± 0.077 |
| SAGGSAPPASAPGVVEEVEAEVPVDVPEVARLTGRPPRPGERYRVRVVRRVYPDGRVETDVYIEPGSAGGSA [r15_91_TrMRF] | -0.252 ± 0.14 | 0.328 ± 0.064 |
